From paper doi:10.1101/2020.01.12.903617, “The peptide sensor motif stabilizes the outward-facing conformation of TmrAB” (bioRxiv, 2020)
No end group written: not given here. fluorescein = fluorescein label attached to the Cys side chain

Key:
[1] = target: T1, TmrAB D125A^TmrB (Thermus thermophilus, UniProt Q72J05 1-600; Q72J04 1-578, D125A); assay: fluorescence polarisation; 1.7 uM TmrAB with 50 nM RRY(C^Fluorescein)KSTEL in SEC buffer (20 mM HEPES, 150 mM NaCl, pH 7, 0.05% ß-DDM), 15 minutes on ice, in the absence or presence of 5 mM ATP and 10 mM MgCl2; read at 25°C (the results say 4°C); signal normalized to WT without ATP; conditions: both partners purified
T1 construct: TmrA, Thermus thermophilus, the chain of TmrAB with the canonical Walker B motif; TmrB, Thermus thermophilus, the chain of TmrAB with the non-canonical Walker B motif; also called D125A^TmrB variant
T1 sequence 1: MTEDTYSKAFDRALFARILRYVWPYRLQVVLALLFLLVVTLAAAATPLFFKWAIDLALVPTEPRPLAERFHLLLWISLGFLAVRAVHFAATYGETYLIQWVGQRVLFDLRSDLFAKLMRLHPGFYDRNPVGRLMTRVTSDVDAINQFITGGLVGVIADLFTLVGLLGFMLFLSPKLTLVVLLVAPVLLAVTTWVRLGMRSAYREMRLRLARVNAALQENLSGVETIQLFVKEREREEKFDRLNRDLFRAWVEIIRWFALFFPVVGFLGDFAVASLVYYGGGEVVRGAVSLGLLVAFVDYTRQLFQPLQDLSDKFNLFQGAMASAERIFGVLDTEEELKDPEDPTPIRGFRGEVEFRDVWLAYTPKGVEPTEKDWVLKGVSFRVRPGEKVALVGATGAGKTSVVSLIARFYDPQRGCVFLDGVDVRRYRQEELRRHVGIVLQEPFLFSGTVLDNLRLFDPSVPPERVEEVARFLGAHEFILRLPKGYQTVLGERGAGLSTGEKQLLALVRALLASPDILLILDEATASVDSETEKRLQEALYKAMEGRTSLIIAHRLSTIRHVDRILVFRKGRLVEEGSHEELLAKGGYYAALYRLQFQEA
T1 sequence 2: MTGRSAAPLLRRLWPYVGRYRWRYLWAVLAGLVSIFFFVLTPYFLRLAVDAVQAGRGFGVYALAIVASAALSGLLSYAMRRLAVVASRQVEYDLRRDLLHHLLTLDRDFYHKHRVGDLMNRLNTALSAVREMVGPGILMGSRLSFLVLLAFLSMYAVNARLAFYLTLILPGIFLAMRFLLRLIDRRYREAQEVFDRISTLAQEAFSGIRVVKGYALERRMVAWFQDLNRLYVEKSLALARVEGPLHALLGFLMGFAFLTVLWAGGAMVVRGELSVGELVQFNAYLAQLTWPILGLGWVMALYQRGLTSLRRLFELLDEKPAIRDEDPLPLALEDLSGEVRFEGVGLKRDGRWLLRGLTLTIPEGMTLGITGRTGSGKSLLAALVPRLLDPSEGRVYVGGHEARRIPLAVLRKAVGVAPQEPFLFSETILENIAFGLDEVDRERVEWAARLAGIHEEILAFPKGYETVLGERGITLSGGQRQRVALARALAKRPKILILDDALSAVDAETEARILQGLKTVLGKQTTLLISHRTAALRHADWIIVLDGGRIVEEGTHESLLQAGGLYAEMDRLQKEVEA

[2] = target: T2, TmrAB R136A^TmrA (Thermus thermophilus, UniProt Q72J05 1-600; Q72J04 1-578, R136A); assay: as above; conditions: both partners purified
T2 construct: TmrA, Thermus thermophilus, the chain of TmrAB with the canonical Walker B motif; TmrB, Thermus thermophilus, the chain of TmrAB with the non-canonical Walker B motif
T2 sequence 1: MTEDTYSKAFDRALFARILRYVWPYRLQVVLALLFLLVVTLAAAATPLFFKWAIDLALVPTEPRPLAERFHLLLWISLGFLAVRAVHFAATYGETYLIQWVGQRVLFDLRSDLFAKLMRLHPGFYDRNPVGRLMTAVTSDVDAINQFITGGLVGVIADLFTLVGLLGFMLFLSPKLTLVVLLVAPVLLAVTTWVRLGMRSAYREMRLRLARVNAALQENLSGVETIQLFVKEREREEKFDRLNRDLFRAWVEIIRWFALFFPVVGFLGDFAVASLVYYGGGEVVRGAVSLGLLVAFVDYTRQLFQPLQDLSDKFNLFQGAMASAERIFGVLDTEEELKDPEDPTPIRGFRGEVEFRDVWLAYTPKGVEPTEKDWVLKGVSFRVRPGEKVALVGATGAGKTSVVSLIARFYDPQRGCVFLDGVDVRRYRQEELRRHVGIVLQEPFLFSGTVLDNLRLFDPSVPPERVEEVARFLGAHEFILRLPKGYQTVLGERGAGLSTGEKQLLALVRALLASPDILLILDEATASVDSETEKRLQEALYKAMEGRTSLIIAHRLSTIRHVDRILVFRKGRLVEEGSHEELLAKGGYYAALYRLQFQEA
T2 sequence 2: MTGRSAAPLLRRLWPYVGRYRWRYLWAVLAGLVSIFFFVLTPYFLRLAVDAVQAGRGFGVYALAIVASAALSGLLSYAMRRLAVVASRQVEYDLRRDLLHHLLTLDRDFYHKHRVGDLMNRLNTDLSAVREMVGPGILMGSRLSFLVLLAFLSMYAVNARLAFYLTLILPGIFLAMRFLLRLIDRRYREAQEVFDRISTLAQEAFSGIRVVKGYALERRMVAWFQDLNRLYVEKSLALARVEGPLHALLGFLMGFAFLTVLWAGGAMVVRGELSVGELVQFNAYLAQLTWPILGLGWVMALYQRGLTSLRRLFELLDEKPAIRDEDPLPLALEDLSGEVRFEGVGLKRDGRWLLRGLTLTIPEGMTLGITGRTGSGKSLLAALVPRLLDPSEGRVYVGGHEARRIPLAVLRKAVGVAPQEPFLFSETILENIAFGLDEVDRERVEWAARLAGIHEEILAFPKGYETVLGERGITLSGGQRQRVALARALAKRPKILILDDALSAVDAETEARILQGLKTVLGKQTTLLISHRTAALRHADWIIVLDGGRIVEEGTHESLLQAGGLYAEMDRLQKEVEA

B1: fluorescent transport substrate peptide RRY(C^Fluorescein)KSTEL (peptide)
peptide: RRYC(fluorescein)KSTEL
notes: fluorescein-labelled transport substrate peptide of TmrAB; also called fluorescently-labeled peptide substrate; peptide substrate; source: bought: Genscript
[1]
  binding result: binds
[2]
  binding result: binds
